This passage reports binding result and Kd results from patent US20220194997A1 (CHINESE UNIVERSITY OF HONG KONG, published 2022).

Experiment [1] concerns the target human wild-type α-synuclein (full-length) (human, UniProt P37840 1-140). The experiment can be described thus: MST (FIG. 7).
Experiment [2] concerns the target T1, SUMO1(15-55) (human, Where it is the MST target, it carries Alexa Fluor 647 NHS ester on amines (NHS-647); the letters do not show this.).
T1 construct: Fragment 15-55 of human SUMO1; Recombinant SUMO1 fragments were made with an N-terminal His-tag removed by thrombin; also called SUMO(15-55); SUMO1(15-55) peptide
T1 peptide: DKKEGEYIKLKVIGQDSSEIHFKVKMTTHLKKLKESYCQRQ
Briefly: MST; NHS-647 labelled SUMO1(15-55) as target, peptide titrated as ligand. On the procedure: The labelling reaction was performed according to the manufacturer's instructions. Unreacted dye was removed with the dye removal column supplied in the Protein Labelling Kit RED-NHS (NanoTemper Technologies) or desalting column (Bio-Rad). The purity was monitored by measuring the ratio of protein to dye (for example, spectroscopically by measuring absorption at 280 nm for protein and 650 nm for the dye; molar absorbance: 239,000 M⁻¹ cm⁻¹) after the clean-up procedure. The labelled targets were adjusted to appropriate concentration for detection. The ligands were dissolved in reaction buffer and a series of 16 1:1 dilutions was prepared. For the measurement, each ligand dilution was mixed with one volume of labelled protein target. After 10 min incubation, the samples were loaded into standard or premium Monolith NT.115 Capillaries (NanoTemper Technologies). MST was measured using a Monolith NT.115 instrument (NanoTemper Technologies) at an ambient temperature of 25° C. Instrument parameters were adjusted to 20% LED power and medium MST power. Data of three independently pipetted measurements were analyzed (MO.Affinity Analysis software version 2.1.3, NanoTemper Technologies) using the signal from an MST-on time of 5 s.

Experiment [3] concerns the target T1, SUMO1(15-55). The experiment can be described thus: MST (FIG. 11b). As to the method: Unreacted dye was removed with desalting column (2K MWCO, Bio-Rad). The purity was monitored by measuring the ratio of protein to dye after the clean-up procedure. The labelled targets were adjusted to appropriate concentration for detection and kept in ddH2O with 0.1% Tween 20, meanwhile, the ligands were maintained in corresponding buffer (peptides: ddH2O; α-synuclein proteins: 20 mM HEPES, 150 mM NaCl, pH 7.4). For each assay, unlabelled ligand was mixed with equal volume of labelled protein target at 16 different serially diluted concentrations at room temperature.

B1: SUMO1(31-55) (peptide)
peptide: SSEIHFKVKMTTHLKKLKESYCQRQ
notes: also called SUMO(31-55)
Regarding B1, in experiment [1], the binding result is “binds”.

B2: αsyn(35-45) (peptide)
peptide: EGVLYVGSKTK
notes: Synthesized peptide fragment of α-synuclein; also called β1 strand peptide; β1-strand peptide-αsyn (35-45)
In general, Kd refers to the concentration at which binding is half-saturated. Read a high Kd as lower affinity. On to B2, for which binding with SUMO1(15-55) [2] was put at a Kd of 1150 nM.

B3: αsyn(48-60) (peptide)
peptide: VVHGVATVAEKTK
notes: Synthesized peptide; also called β2-strand peptide αsyn(48-60); SIM 2 (residues 48-60)
On to B3, for which the binding result in the experiment with SUMO1(15-55) [3] was “binds”.

B4: αsyn(74-84) (peptide)
peptide: VTAVAQKTVEG
notes: Peptide fragment of α-synuclein; also called β4 strand peptide
On to B4, for which, in the experiment with SUMO1(15-55) [2], binding was characterised by a dissociation constant (Kd) of 2210 nM.
